Here are results for 1 substance from patent publication US6051232.

The test has as its target wild type RT1.A^a (rat MHC class I antigen) on transfected BUF (RT1^b) Morris hepatoma 7316A cells (rat). In words: flow cytometry on BUF hepatoma cells transfected with WT-RT1.A^a, FITC rabbit anti-rat Ig.

“R2/15S anti-rat RT1.A^a class I polymorphic monoclonal antibody (tool reagent)” showed a positive staining (percent of cells) above 90%.
